Measurements from PMC7641127 (2020).
No end group written: not given here.

T1: recombinant MCL1 (human, UniProt Q07820 1-350)
T1 chain: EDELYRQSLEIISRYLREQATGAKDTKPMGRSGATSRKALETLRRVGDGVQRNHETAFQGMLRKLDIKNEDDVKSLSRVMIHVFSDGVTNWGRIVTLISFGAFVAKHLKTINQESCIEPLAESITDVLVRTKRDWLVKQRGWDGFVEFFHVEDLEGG


Biological target: T1, recombinant MCL1
Test: FP

Compared with RENFEILMKLKESLELMELVPQPLVDSYRQQQQLLQR [p73TD-derived peptide α1α2], RENFEILMKLKESLELMELV [p73TD-derived peptide α1] is 3-fold higher in IC50: 882 nM for the first, 2630 nM for the second. The first is the more potent here.

DEDTYYLQVRGRENFEILMKLKESLELMELV-NH2 [p73TD-derived peptide β1α1] was tested, and the IC50 was 1090 nM.
